“Also recorded” adds a separate entry of the source. Residues, ends and D or L forms follow the SMILES beside them. No end group written: not given here.
Key:
[1] = target: T1, BCL6 BTB domain N21K mutant (Homo sapiens, UniProt P41182, C67R/C84N/C8Q/N21K); test: Co-purification assay with mutant BCL6 BTB domain N21K; assay type: binding
T1 construct: which is BCL6 residues 5-129, with the point mutations C8Q, C67R and C84N; thioredoxin-6His-TEV site-BirA motif-thrombin site fusion (N, cleaved yes); made in house; host or cells: E. coli
Method: (§1) In vitro binding assays. Co-purification: Equimolar amounts of His-tagged thioredoxin-corepressor fusion protein and BCL6 BTB or PLZF BTB domain were combined, incubated for at least two hours, and loaded onto a Ni-NTA spin column (Qiagen). The column was washed three times with 600 μl of wash buffer (200 mM NaCl, 20 mM Tris-HCl pH 8.0, 10 mM imidazole), and bound protein was released with 400 μl of elution buffer (200 mM NaCl, 20 mM Tris-HCl pH 8.0, 300 mM imidazole). Samples were analyzed on 10-20% SDS-PAGE gels and stained with Coomassie blue.

[2] = target: T2, BCL6 BTB domain H116A mutant (Homo sapiens, UniProt P41182, C67R/C84N/C8Q/H116A); test: Co-purification assay with mutant BCL6 BTB domain H116A; assay type: binding
T2 construct: which is BCL6 residues 5-129, with the point mutations C8Q, C67R and C84N; thioredoxin-6His-TEV site-BirA motif-thrombin site fusion (N, cleaved yes); made in house; host or cells: E. coli
Method: as §1

BCL6 BTB domain [3] = target: T3, BCL6 BTB domain (Homo sapiens, UniProt P41182, C67R/C84N/C8Q); test: Electrophoretic mobility shift assay (EMSA) for complex formation of BCoR fragments with BCL6 BTB domain; assay type: binding; design: which is BCL6 residues 5-129, with the point mutations C8Q, C67R and C84N; made in house; settings: non-denaturing PAGE
Method: Further mapping of the minimal BCoR fragment was done with a version of an electrophoretic mobility shift assay (EMSA). Purified BCL6 BTB domain was mixed with a BCoR fragment (either as a fusion protein or as a purified peptide) and incubated at room temperature in a non-denaturing buffer. The mixture was analyzed by non-denaturing polyacrylamide gel electrophoresis (PAGE) and protein bands were visualized with either Coomassie blue staining or silver staining. A change in the position of the BCL6 BTB domain band was indicative of complex formation. […] These two sequences correspond to a S507A / W509A / V511A BCoR triple mutation, and to a S507W / W509S BCoR double mutation, respectively.

BCL6 BTB domain [4] = target: T3, BCL6 BTB domain; test: Surface plasmon resonance (SPR) binding of BCL6 BTB domain to immobilized corepressor peptides; design: which is BCL6 residues 5-129, with the point mutations C8Q, C67R and C84N; made in house; settings: for relative binding affinity by SPR: relative to the longer SMRT peptide(s)
Method: Protein Expression and Purification. […] BCL6 BTB domain protein was produced by thrombin digestion of the thioredoxin fusion proteins, and repurified by size-exclusion chromatography in 500 mM NaC1, 20 mM Tris-HCl, 10% glycerol, 1.0 mM TCEP, pH 8.5.
SPR: Biotinylated corepressor peptides were coupled to streptavidin-coated sensor chips to a density of 800 response units (Biacore 2000). BCL6 or PLZF BTB protein was serially diluted in running buffer (10 mM Hepes, pH 7.4, 150 mM NaCl, 3 mM EDTA, 0.005% v/v surfactant P20) and injected at a flow rate of 5 μL/min.

BCL6 BTB domain [5] = target: T3, BCL6 BTB domain; test: biochemical
Method: Protein Expression and Purification. […] BCL6 BTB domain protein was produced by thrombin digestion of the thioredoxin fusion proteins, and repurified by size-exclusion chromatography in 500 mM NaC1, 20 mM Tris-HCl, 10% glycerol, 1.0 mM TCEP, pH 8.5. Corepressor fusion proteins were biotinylated with BirA and digested with TEV protease to yield peptides for SPR analysis with a biotinylated lysine eight amino acids N-terminal to the first corepressor residue, or digested with thrombin to produce peptides with no additional N-terminal residues for co-crystallization or ITC.
ITC: The binding of SMRT^1414-1430 to BTB domain protein was analyzed on a Microcal VP-ITC instrument at 25° C. All components were in 150 mM NaCl, 20 mM Hepes pH 7.7, 1 mM TCEP. The experiment consisted of thirty 6.93 μL injections of a solution containing 480 μM SMRT^1414-1430 into a sample cell containing 1.8 mL of either BCL6 BTB (23.0 μM) or PLZF BTB (38.5 μM). To correct for dilution and mixing effects, a series of control injections was carried out, in which the heat of dilution was measured in blank titrations by injecting the peptide into the buffer.

BCL6 BTB domain [6] = target: T3, BCL6 BTB domain; test: Co-purification assay (Ni-NTA) of His-tagged corepressor fusion proteins with BTB domain; assay type: binding; design: which is BCL6 residues 5-129, with the point mutations C8Q, C67R and C84N; made in house
Method: as §1
The initial BCL6 interacting fragment identified in the yeast two-hybrid screen consisted of residues 112-753 of BCoR (Huynh et al., 2000).

Molecule: Trx-(SMRT-BBD): His-tagged thioredoxin fusion protein of the SMRT-BBD (LVATVKEAGRSIHEIPR; also: His-tagged thioredoxin fusion protein)
- binding to N21K mutant BCL6 BTB domain [1]: no binding at all
- binding to H116A mutant BCL6 BTB domain [2]: significantly reduced affinity

Molecule: BCoR 494-514: thioredoxin-6his fusion protein with BCoR residues 494-514 (CAIYRSEIISTAPSSWVVPGP; also: thioredoxin-6His fusion protein)
- complex formation with the BCL6 BTB domain (EMSA band shift) (BCL6 BTB domain [3]): complexes were present

Molecule: BCoR 494-510: thioredoxin-6his fusion protein with BCoR residues 494-510 (CAIYRSEIISTAPSSWV; also: thioredoxin-6His fusion protein)
- complex formation with the BCL6 BTB domain (EMSA band shift) (BCL6 BTB domain [3]): do not interact

Molecule: CC[C@H](C)[C@H](NC(=O)[C@H](CO)NC(=O)[C@H](CCCNC(=N)N)NC(=O)CNC(=O)[C@H](C)NC(=O)[C@H](CCC(=O)O)NC(=O)[C@H](CCCCN)NC(=O)[C@@H](NC(=O)[C@@H](NC(=O)[C@H](C)NC(=O)[C@@H](NC(=O)[C@@H](N)CC(C)C)C(C)C)[C@@H](C)O)C(C)C)C(=O)N[C@@H](Cc1c[nH]cn1)C(=O)N[C@@H](CCC(=O)O)C(=O)N[C@H](C(=O)N1CCC[C@H]1C(=O)N[C@@H](CCCNC(=N)N)C(=O)O)[C@@H](C)CC [SMRT^1414-1430, lvatvkeagrsiheipr] (H-LVATVKEAGRSIHEIPR-OH)
- relative binding affinity by SPR (BCL6 BTB domain [4]): stronger binding
- binding to N21K mutant BCL6 BTB domain [1]: does not bind
- stoicheometry of the interaction by ITC (BCL6 BTB domain [5]): 1.11 ±0.06 SMRT peptides per BCL6 chain
- enthalpic contribution ΔH (BCL6 BTB domain [5]; ITC): -23.2 ± 1.6 kcal/mol
- entropic contribution −TΔS (BCL6 BTB domain [5]; ITC): 16.4±2.3
- binding to H116A mutant BCL6 BTB domain [2]: does not bind

Molecule: CC[C@H](C)[C@H](NC(=O)[C@H](CO)NC(=O)[C@H](CCCNC(=N)N)NC(=O)CNC(=O)[C@H](C)NC(=O)[C@H](CCC(=O)O)NC(=O)[C@H](CCCCN)NC(=O)[C@@H](NC(=O)[C@@H](NC(=O)[C@H](C)NC(=O)[C@@H](NC(=O)[C@@H](N)CC(C)C)C(C)C)[C@@H](C)O)C(C)C)C(=O)N[C@@H](Cc1cnc[nH]1)C(=O)N[C@@H](CCC(=O)O)C(=O)N[C@H](C(=O)N1CCC[C@H]1C(=O)N[C@@H](CCCNC(=N)N)C(=O)O)[C@@H](C)CC [SMRT^1414-1430, lvatvkeagrsiheipr] (H-LVATVKEAGRSIHEIPR-OH)
- Kd (BCL6 BTB domain [5]): 11.4 ± 1 µM

Molecule: N-CoR^1351-1383: N-CoR corepressor peptide, residues 1351-1383, equivalent to the SMRT fragment (IHEIPRQDILTQESRKTPEVVQSTRPIIEGSIS; UniProt O75376 1351-1383, looked up, fragment)
- fold stronger affinity of the BTB domain relative to the longer SMRT peptide (BCL6 BTB domain [4]; SPR, ratio of dissociation constants): 2.5 fold

Molecule: RSEIISTAPSSWVVPGP [BCoR 498-514]
- complex formation with the BCL6 BTB domain (EMSA band shift) (BCL6 BTB domain [3]): complexes were present

Molecule: CAIYRSEIISTAPSSWVVPGPSPNE (not fully specified) [BCoR 494-518, thioredoxin-6his fusion protein with BCoR residues 494-518]
- complex formation with the BCL6 BTB domain (EMSA band shift) (BCL6 BTB domain [3]): forms a complex; also recorded: complexes were present

Molecule: RSEIISTAPWSSVVPGP [BCoR peptide with S507W / W509S double mutation]
- complex formation with the BCL6 BTB domain (EMSA band shift) (BCL6 BTB domain [3]): did not result in a shift

Molecule: BCoR 502-522: thioredoxin-6his fusion protein with BCoR residues 502-522 (ISTAPSSWVVPGPSPNEENNG; also: thioredoxin-6His fusion protein)
- complex formation with the BCL6 BTB domain (EMSA band shift) (BCL6 BTB domain [3]): complexes were present

Molecule: SMRT^1417-1441: N-terminally truncated SMRT corepressor peptide, residues 1417-1441 (TVKEAGRSIHEIPREELRHTPELPL; not fully specified)
- relative binding affinity by SPR (BCL6 BTB domain [4]): slightly weaker binding

Molecule: RSEIISTAPASAVAPGP [BCoR peptide with S507A / W509A / V511A triple mutation]
- complex formation with the BCL6 BTB domain (EMSA band shift) (BCL6 BTB domain [3]): did not result in a shift

Molecule: BCoR 506-522: thioredoxin-6his fusion protein with BCoR residues 506-522 (PSSWVVPGPSPNEENNG; also: thioredoxin-6His fusion protein)
- complex formation with the BCL6 BTB domain (EMSA band shift) (BCL6 BTB domain [3]): do not interact

B1: BCoR fragment 317-547: hexahistidine tagged fusion protein containing residues 317 to 547 of BCoR (protein)
chain: SAKAVTSGLPGDTALLLPPSPRPSPRVHLPTQPAADTYSEFHKHYARISTSPSVALSKPYMTVSSEFPAARLSNGKYPKAPEGGEGAQPVPGHARKTAVQDRKDGSSPPLLEKQTVTKDVTDKPLDLSSKVVDVDASKADHMKKMAPTVLVHSRAGSGLVLSGSEIPKETLSPPGNGCAIYRSEIISTAPSSWVVPGPSPNEENNGKSMSLKNKALDWAIPQQRSSSCPRM
modifications: left off: large carriers
notes: hexahistidine tagged fusion protein containing residues 317 to 547 of BCoR
- binding to BCL6 BTB domain in co-purification assay (BCL6 BTB domain [6]): bound directly
- binding to N21K mutant BCL6 BTB domain [1]: did not bind
- binding to H116A mutant BCL6 BTB domain [2]: did not bind

B2: BCoR 112 to 342: hexahistidine tagged fusion protein containing residues 112 to 342 of BCoR (protein, UniProt Q6W2J9 112-342, looked up, fragment)
chain: LGFSSERNPEMQFKPNTPETVEASAVSGKPPNGFSAIYKTPPGIQKSAVATAEALGLDRPASDKQSPLNINGASYLRLPWVNPYMEGATPAIYPFLDSPNKYSLNMYKALLPQQSYSLAQPLYSPVCTNGERFLYLPPPHYVGPHIPSSLASPMRLSTPSASPAIPPLVHCADKSLPWKMGVSPGNPVDSHAYPHIQNSKQPRVPSAKAVTSGLPGDTALLLPPSPRPSPR
modifications: hexahistidine tag
notes: hexahistidine tagged fusion protein containing residues 112 to 342 of BCoR
- binding to BCL6 BTB domain in co-purification assay (BCL6 BTB domain [6]): did not

B3: BCoR 542 to 753: hexahistidine tagged fusion protein containing residues 542 to 753 of BCoR (protein, UniProt Q6W2J9 542-753, looked up, fragment)
chain: SSCPRMGGTDAVITNVSGSVSSAGRPASASPAPNANADGTKTSRSSVETTPSVIQHVGQPPATPAKHSSSTSSKGAKASNPEPSFKANENGLPPSSIFLSPNEAFRSPPIPYPRSYLPYPAPEGIAVSPLSLHGKGPVYPHPVLLPNGSLFPGHLAPKPGLPYGLPTGRPEFVTYQDALGLGMVHPMLIPHTPIEITKEEKPERRSRSHERA
modifications: hexahistidine tag
notes: hexahistidine tagged fusion protein containing residues 542 to 753 of BCoR
- binding to BCL6 BTB domain in co-purification assay (BCL6 BTB domain [6]): did not

Source: patent US8703503B2, “Methods and compositions for inhibition of BCL6 repression” (Albert Einstein School of Medicine of Yeshiva University, priority 2003, dated 2014)
